Assay results reported in the supplement of paper PMC12042874.
± gives the uncertainty stated by the source.

Test: amyloid nucleation score (Sup35N fusion, yeast selection) (log enrichment); library NNK2; higher = more nucleation; inactive = no reads after selection
How it was run: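 Yeast lacking psi expressed peptides of 20 random codons fused to Sup35N, received 100 μM copper sulfate for 24 hours, and were then grown for 7 days at 30°C on medium lacking adenine and uracil. Illumina sequencing of input and output plasmid inserts provided the reads. Nucleation scores are DiMSum log enrichments of output over input, centred on the mode of non-aggregating sequences. Any sequence with under 100 input reads was excluded.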

Substance | amyloid nucleation score
TMGYNFRCYVPLMNMLVRGV | -0.614 ± 0.54
IFPEL | -1.11 ± 0.45
YWVFMNSRLVAIGPANALVV | -0.69 ± 1.1
SMPLASSMSKHNHWHLV | 0.13 ± 0.35
SVFVYYGFQENSAFSIWLAP | -0.96 ± 0.54
ILWNYIYDKSFGITPDGFV | -0.398 ± 1
LWFITCNMSGHWLLTERR | 4.39 ± 0.064
FKFYGFFD | inactive
LLFINGHAMTGAVYTITKLT | -0.302 ± 0.36
RPVWDNWLTGFLGMPMWGKT | 0.112 ± 0.43
LATLVNCCTIVNRSNFGIMH | 6.985 ± 0.061
SCTALVKEKMRG | 0.48 ± 0.32
ANMTSHEFRWKSN | -0.168 ± 1.1
LHRKWFGYGCTCSWIGWEEW | -0.002 ± 0.48
TTVDSNIRAYIFKVARYHYK | -0.488 ± 1
INLYRSVGPKKWYTGEVLMA | -0.137 ± 1.1
GSYVDEVSIYPDEACSYRLA | -0.187 ± 0.76
FYLWATTYQCRFFIRYAKFS | 2.97 ± 0.084
SVCSSRGDAMSGVLPCAGGL | 0.124 ± 0.55
CGLYWFMVFTF | 0.147 ± 0.76
YCCCVSMFVRTLIARDYNLN | 8.154 ± 0.078
DWTDCYWMLRDTGGFSIS | -1.35 ± 0.78
IRLLCHAVENCGTQRRLWGL | 0.329 ± 0.6
CLCGYYQSRMDTYYEL | -2.18 ± 0.54
RDGLVQMDVVLINVRVEVVC | -0.13 ± 0.76

Substance | amyloid nucleation score
YRVWWSVIYVKWVG | -0.618 ± 1.1
AWYKFIITMPFIFKSDITST | -0.454 ± 0.54
HTFITVPASGRAATLCTSED | 1.14 ± 0.12
FFKRSSFKMGSRITETRYRR | -0.728 ± 0.56
FHGGNFATDWFLWFINWEVA | -0.259 ± 0.65
PDFKNLSYWLSVDTMPSRWV | inactive
VLRIRLQAGEGKRCE | 4.878 ± 0.044
KVRDCIMPRCRGRVCICNYG | -0.29 ± 0.25
ARSMVMHYFWGSTLAPESKF | -0.801 ± 0.45
LSYPTVYLATLVYFLQMWAV | -0.285 ± 0.37
VRGSATEFTILVVVVVLGKR | 0.182 ± 0.42
GSFMYSREVRLRYALARSFE | -0.545 ± 0.41
SGSGGSSLLFTIGEQGRRRI | -0.876 ± 0.45
VELQP | 1.18 ± 0.29
VEHARGDRCCRQDYGVQQYK | 2.68 ± 0.23
AGNQIRIRASTCASMLGWDL | 3.83 ± 0.051
CKWIKEIVVED | -0.981 ± 1
RMTSHCMNSLIWQKNHGMRV | -0.348 ± 0.65
WIWEKSHWSENISMVRCDVS | 0.379 ± 0.55
RSSSRASALTRYLSELGKKS | 0.694 ± 0.39
PSWCS | 0.33 ± 0.17
RQLHLVLNRVGWMLWYTH | 0.684 ± 0.26
NWCWYHANRLGCFGASCHVV | 4.52 ± 0.071
YTVGRGSR | 0.794 ± 0.6
RTGHTINFVEQPMHTVPMWH | 5.08 ± 0.068

Substance | amyloid nucleation score
MLDVCGVLHLPRRSLIAFVA | 1.27 ± 0.21
VQGSEKYGVVLFEY | 5.83 ± 0.094
FVGTLMDPVSLMKLRW | 0.787 ± 0.31
LYDTNVKWVFSCYSKACSCK | -0.323 ± 0.79
FRFCHCLEFQVY | 0.126 ± 0.5
YLYGGVYKIKIMILPFDRAL | 7.621 ± 0.044
CIELFPFAMVNRIFATYSYH | -0.352 ± 0.25
HLTEFNNRRRLGTDLAGVGN | 0.109 ± 0.33
RLSSHTVMAWVSCNWGDFTV | 9.919 ± 0.065
LVGSVWFEISFDSQMYSFG | inactive
VVMNFMTDVNSLVWPTS | inactive
NSKLPAEFLFFQYECMESPR | -0.758 ± 0.79
YRMAAVIYIYIIRFSGSCMW | -2.08 ± 0.62
LYVTQTS | -0.053 ± 0.35
TMDNISSNSFDACSICSYWY | 9.385 ± 0.081
IGISYCSRRVIFHGTRKTHS | -0.034 ± 0.28
VYVRFWESSSCYTRGRNGWN | 3.08 ± 0.086
DMRFYMVLA | 4.94 ± 0.051
ICSSYALGQSTETG | -0.559 ± 0.76
WFPLGQHEKAEILSLMIVDR | -0.154 ± 0.49
FEVFLM | -0.499 ± 0.41
QARYFFTAARYITVLWKSTF | -0.487 ± 0.56
LVSYQVFSWSEPENSV | -0.239 ± 0.79
RYRTMSTRHPAYGVGGLLLM | 0.544 ± 0.36
LGSVVSTPFCYSMFRTFKKH | 0.109 ± 0.27

Substance | amyloid nucleation score
SCYLVVFPKIC | inactive
TYVVKLLIGWDLDAIFTVLS | 0.499 ± 0.37
TRTNEVSGNAESKNCRCYIG | 0.404 ± 0.29
YGPLNFDTSP | 0.74 ± 0.16
PWETRSNA | -0.012 ± 0.46
YSRVQSRPMCKLRKALHWRV | 1.31 ± 0.25
ITACCRSR | 3.02 ± 0.062
DYCSYTAL | -0.081 ± 1.1
HIFGNRYWYSFCCFLLLPRR | 7.691 ± 0.072
HRRCMFQNTAMRHRQWDA | 0.841 ± 0.44
VCYGVSFPIGWGYQYHNRNV | inactive
RKWYGQTSARADVAVS | 0.232 ± 0.25
FSNLPGH | 1.98 ± 0.15
NMFGLPKLVLSDLVVRV | 1.72 ± 0.15
DYSRLSLGICEVDDCTLRMV | -0.761 ± 0.39
SCFGNVYGGVVLQAFGGVVS | 0.082 ± 1.1
RCFMGVA | 0.276 ± 0.65
GTIFMRALKNAVYASSRALI | -0.247 ± 0.54
VNSLFLVVRYGG | 5.25 ± 0.05
RYAINCVEAYGLC | -0.387 ± 0.63
SHGEKSVDDEGSGIGERWQC | 1.27 ± 0.33
TGIDHYFWLFFSYLGTLWSK | inactive
IQEVRVACCWLIFRGCIRTA | 4.1 ± 0.12
QSYVLMC | -0.233 ± 0.48
FYNIRPETVAKAMKGLGWST | -0.136 ± 0.37

Substance | amyloid nucleation score
IYHYPKRREGVIK | 0.224 ± 0.56
LSFFGRDDLNRLHN | -1.41 ± 1.1
LHIKW | 5.728 ± 0.033
MFGGPTFNMRWFFTFFSRGR | 4.46 ± 0.046
FLVENCC | -0.39 ± 0.64
SGAQA | -0.966 ± 0.78
RSLCDL | -0.755 ± 0.54
WGRWSHRWAFHYRACS | -0.879 ± 0.39
RRRTEGN | 0.304 ± 0.8
SFSILLEDTSS | -0.162 ± 0.76
WDCGQTIYGFWDD | -0.58 ± 0.48
YPDDLVMPLDDQRCKARLGH | 0.665 ± 0.57
FRALFSNVVRVDMAMAAGFL | -1.79 ± 0.78
WFGLDVNCLRSWFGLWKFVE | 0.089 ± 0.56
LSIFKGNTNLLLSYVPALNI | -1.29 ± 0.64
NLSFKSMYLVERWICHRKGR | 1.14 ± 0.18
KSTATSYVMPK | -0.072 ± 0.25
CHRAKTVVGNRVNRGDWDNP | -0.434 ± 0.76
QCLTSRLGSKIVMCKSLDIS | 0.009 ± 0.23
GKVAAGVIGRYTY | -0.477 ± 0.22
IIKLRFFWYYNLLNQYLGFR | inactive
YYSLLLGSTKSVAN | -0.038 ± 0.33
LFGVYMLQVCVKNSKLSRSE | -0.133 ± 1
FPLRLLWSGGALCATPPIRV | 0.655 ± 0.47
WHGQQDLDYYHFT | inactive

Substance | amyloid nucleation score
FDSYTIMVI | 0.682 ± 0.21
RDWRANGSCHESSSGLDM | 1.6 ± 0.34
LFVHYFSVGYSHLLCRDCTS | 3.23 ± 0.1
GDKSIRSPLAV | -0.087 ± 0.34
IRESGVYTNLYSVVRVEEKT | 0.012 ± 0.38
GPRSPAA | 0.613 ± 0.34
CSLTSFAGNSIYFRWRANT | 1.18 ± 0.14
TCLMDGSTCTRFGGPLEPMC | 0.028 ± 0.79
MFRGVQN | 0.899 ± 0.53
RSSKTNWWTGEISVPYGYWM | 0.368 ± 0.47
KQVNPPIA | -0.541 ± 1.1
EMSFSLTYSRSRHFRSGGTA | 6.32 ± 0.064
KMAMTVLILPYVPGQLRLTE | 3.12 ± 0.1
VGGYDNLSILISTLQSSIFS | -0.779 ± 0.37
TGLYFLNSWIIMLRL | 4.434 ± 0.033
QLFVMPCMNSFEGRKRNCFS | -0.836 ± 0.48
TAASISIDRTKSMPLSDRMY | inactive
MWGIRSYLVKVL | -0.291 ± 0.76
TQPPNCQVYKRDDTCYWCGS | -0.509 ± 0.33
HNGVIVIDCWRRKFHPNVIS | -0.922 ± 1
TFNVYTVSLDVCDYRGGHGL | 6.602 ± 0.049
PARAKRLTAL | -0.207 ± 0.29
NIAMSDMDILLMQRAQKWLR | 1.1 ± 0.54
QTSLSTMMYLPCH | 0.7 ± 0.49
LAPVYEFEVWIHGIRGRCAW | 4.18 ± 0.065

Substance | amyloid nucleation score
VTRKTWFFVLCNQLFTLFAD | 6.975 ± 0.058
QHTKGHSPEWD | 1.47 ± 0.28
KSRFIFRVSVLDPRASVAWL | inactive
ELAHQNENFRGRRFVAQ | -0.038 ± 1.1
VSARDHLGKRNRHWINC | -0.626 ± 0.55
VLNGGRGVIRLYRVFAGKRF | -1.06 ± 0.47
RATISLVDMEFSLRDPQ | inactive
EILTNQYFCRLWVMGTFYID | -1.19 ± 1
FICALTMYICSLY | 7.389 ± 0.027
CDFSSVTD | -0.357 ± 0.4
GRIVVFV | 0.538 ± 0.39
LGPAYYYHNYLNLRGLSSGM | 0.504 ± 0.74
GYLSGYLRGSNILGHERYRY | -0.85 ± 0.32
IIMLYEYHLITGTMNAMHRV | inactive
LVEGCILSRHQESVNLRFCL | 1.22 ± 0.29
NQGLRWLTDRDILRIVEVGM | 0.027 ± 0.65
LFSSQLTATVRVPMSRNGLW | 7.088 ± 0.031
ICISGAFNVTAHLKLAQASL | 0.295 ± 1
KYRTYPGVGIIGRVDSSLRT | 0.741 ± 0.51
LLKTSASCIMHGEKQKWMLA | 0.671 ± 0.64
TTLVSSGYKYFCDVFTGVNA | -1.45 ± 0.63
SSYGLVKR | 0.655 ± 0.35
